The results in this text go back to publication doi:10.1101/2025.05.08.652968, “Molecular mechanism of exchange coupling in CLC chloride/proton antiporters” (bioRxiv, 2025).

The data set concerns the molecule itself. Kind of data set: cryo-EM structure; CLC-ec1 in Salipro (Saposin-A, POPE/POPG) nanoparticles, 10 mM Hepes, 150 mM NaCl, pH 7.5; C2 symmetry imposed.

B1: CLC-ec1 (wild type) (natural protein, E. coli)
chain: MKTDTPSLETPQAARLRRRQLIRQLLERDKTPLAILFMAAVVGTLVGLAAVAFDKGVAWLQNQRMGALVHTADNYPLLLTVAFLCSAVLAMFGYFLVRKYAPEAGGSGIPEIEGALEDQRPVRWWRVLPVKFFGGLGTLGGGMVLGREGPTVQIGGNIGRMVLDIFRLKGDEARHTLLATGAAAGLAAAFNAPLAGILFIIEEMRPQFRYTLISIKAVFIGVIMSTIMYRIFNHEVALIDVGKLSDAPLNTLWLYLILGIIFGIFGPIFNKWVLGMQDLLHRVHGGNITKWVLMGGAIGGLCGLLGFVAPATSGGGFNLIPIATAGNFSMGMLVFIFVARVITTLLCFSSGAPGGIFAPMLALGTVLGTAFGMVAVELFPQYHLEAGTFAIAGMGALLAASIRAPLTGIILVLEMTDNYQLILPMIITGLGATLLAQFTGGKPLYSAILARTLAKQEAEQLARSK
notes: CLC-ec1, the E. coli CLC Cl-/H+ exchange transporter homolog; The eluate of the cobalt column was incubated with Endoproteinase Lys-C; Homodimer in the cryo-EM maps (C2 symmetry imposed); also called WT CLC-ec1; WT
With B1, the binding result is “binds”.
